We go through two substances from PMC3386239.

The assay addresses Skp1 (mouse, endogenous in RAW264.7 cells) (mouse (endogenous in RAW264.7)) (UniProt Q9WTX5).
Chain of UniProt Q9WTX5 (Q9WTX5 whole entry): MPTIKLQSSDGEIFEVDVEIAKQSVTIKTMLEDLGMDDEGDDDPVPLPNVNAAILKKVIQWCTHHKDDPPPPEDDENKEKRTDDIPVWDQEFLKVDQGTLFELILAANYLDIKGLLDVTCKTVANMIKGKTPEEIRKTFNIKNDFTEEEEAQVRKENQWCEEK

In turn, “GogB Δ264–352 (in-frame deletion of the F-box-like domain), HA-tagged, delivered by the T3SS (natural protein)” displayed an NFκB-driven luciferase in RAW264.7 cells infected with ΔgogB complemented with GogBΔ264–352 (F-box motif deleted), fold of wild type Salmonella (fold of wild type) of 4.

Take “GogB-NT (amino acids 1-253, N-terminal LRR domain), HA-tagged, delivered by the T3SS (domain or fragment)”: the NFκB-driven luciferase in RAW264.7 cells infected with ΔgogB complemented with GogB-NT (C-terminal domain deleted), fold of wild type Salmonella (fold of wild type) amounted to 4.
